Legend:
[1] = molecular target: T1, CD33 on U937 cells (UniProt P20138 18-364, limits assumed); test: FACS on U937 cells
T1 construct: whole, on cells

[2] = molecular target: T2, Siglec-5 on U937 cells (UniProt O15389 17-551, limits assumed); test: FACS on U937 cells
T2 construct: whole, on cells
T2 sequence (looked up): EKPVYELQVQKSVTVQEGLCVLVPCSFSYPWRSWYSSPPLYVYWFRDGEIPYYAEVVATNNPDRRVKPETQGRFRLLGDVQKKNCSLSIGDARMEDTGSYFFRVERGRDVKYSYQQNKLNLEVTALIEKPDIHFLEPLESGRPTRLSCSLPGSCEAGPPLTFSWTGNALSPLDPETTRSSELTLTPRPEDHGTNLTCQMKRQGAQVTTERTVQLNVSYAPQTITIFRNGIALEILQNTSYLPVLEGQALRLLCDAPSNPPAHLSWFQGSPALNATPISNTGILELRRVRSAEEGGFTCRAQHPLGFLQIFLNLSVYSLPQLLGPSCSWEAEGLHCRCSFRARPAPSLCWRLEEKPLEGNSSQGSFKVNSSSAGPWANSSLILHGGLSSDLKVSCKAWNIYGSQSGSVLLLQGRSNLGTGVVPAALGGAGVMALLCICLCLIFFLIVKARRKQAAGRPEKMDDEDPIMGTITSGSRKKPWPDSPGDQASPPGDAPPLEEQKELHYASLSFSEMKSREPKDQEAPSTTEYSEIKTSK

[3] = molecular target: T3, Siglec-9 on U937 cells (UniProt Q9Y336 18-463, limits assumed); test: FACS on U937 cells
T3 construct: whole, on cells

[4] = molecular target: T4, endogenous Siglec-15 on leukaemic cell lines (human, UniProt Q6ZMC9 20-328); test: cell-based or functional assay
T4 sequence (looked up): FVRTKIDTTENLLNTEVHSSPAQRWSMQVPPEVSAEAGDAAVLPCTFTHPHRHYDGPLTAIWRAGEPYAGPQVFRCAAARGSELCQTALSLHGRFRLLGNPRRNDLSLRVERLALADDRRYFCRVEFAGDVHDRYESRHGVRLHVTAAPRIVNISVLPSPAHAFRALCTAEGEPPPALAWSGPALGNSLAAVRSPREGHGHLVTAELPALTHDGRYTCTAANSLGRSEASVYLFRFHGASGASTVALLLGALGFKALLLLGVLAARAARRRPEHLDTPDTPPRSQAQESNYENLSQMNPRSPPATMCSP

T3 sequence (Q9Y336 18-463 limits assumed): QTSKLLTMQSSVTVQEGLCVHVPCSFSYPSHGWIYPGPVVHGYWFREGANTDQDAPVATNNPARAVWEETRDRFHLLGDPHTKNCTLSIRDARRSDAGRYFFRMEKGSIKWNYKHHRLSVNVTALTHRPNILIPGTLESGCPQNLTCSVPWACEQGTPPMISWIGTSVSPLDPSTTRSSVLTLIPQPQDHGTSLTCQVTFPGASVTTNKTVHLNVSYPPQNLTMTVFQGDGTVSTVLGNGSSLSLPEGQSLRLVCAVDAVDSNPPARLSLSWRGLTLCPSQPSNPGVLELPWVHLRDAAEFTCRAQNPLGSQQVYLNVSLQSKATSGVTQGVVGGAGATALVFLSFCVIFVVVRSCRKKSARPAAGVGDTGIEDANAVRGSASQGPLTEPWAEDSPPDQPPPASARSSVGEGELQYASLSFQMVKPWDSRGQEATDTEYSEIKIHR
T1 sequence (P20138 18-364 limits assumed): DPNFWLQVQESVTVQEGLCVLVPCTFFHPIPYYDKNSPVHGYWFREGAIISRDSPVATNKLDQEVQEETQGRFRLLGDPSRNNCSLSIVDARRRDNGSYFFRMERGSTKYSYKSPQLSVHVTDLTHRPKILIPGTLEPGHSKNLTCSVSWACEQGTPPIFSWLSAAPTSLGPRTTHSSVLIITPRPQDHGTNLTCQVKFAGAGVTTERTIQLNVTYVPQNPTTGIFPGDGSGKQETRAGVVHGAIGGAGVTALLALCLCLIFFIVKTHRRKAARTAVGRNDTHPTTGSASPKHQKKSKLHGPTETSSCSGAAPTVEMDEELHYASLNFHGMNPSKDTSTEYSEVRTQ

B1: A9E8 monoclonal antibody (mouse IgG1 format) (antibody, V domains shown)
VH: QLQLQESGPGLVKPSETLSLTCAVSGASISNWWSWVRQPPGKGLEWIGEVHHSGVTTYKPSLKSRVTISVDNSKNQLSLKLTSVTAADTAVYYCAREFADDAFDIWGRGTMVTVSS
VL: SSELTQDPAVSVALGQTVRITCRGDSLRKYYASWYQQKPRQAPQLVIYHKNNRASGIPDRFSGSISGNTASLTITGAQAEDEAAYFCNSRDTSGNYLVFGGGTKVTVLG
notes: VH and VL from the phage scFv were cloned into a mouse IgG1 backbone and expressed as complete mouse IgG1; also called A9E8 antibody
- binding result [1]: no binding
- binding result [2]: no binding
- binding result [3]: no binding
- half-life of endocytosis [4]: 174 s
